Publication PMC11797554, “Chemical genetics reveals cross-regulation of plant developmental signaling by the immune peptide-receptor pathway” (Science Advances, 2024)

Columns and labels:
[1] = biological target: MPK6ΔNt (29 to 305) (Arabidopsis) (UniProt Q39026); assay: ITC; SCRM KiDoK peptide to MPK6ΔNt (29 to 305), without kC9; 25°C, Malvern PEAQ-ITC; PBS pH 7.4 with 2% DMSO
[2] = biological target: MPK6ΔNt (29 to 305) (Arabidopsis) (UniProt Q39026); assay: ITC; SCRM KiDoK peptide to MPK6ΔNt (29 to 305) preincubated with the small molecule kC9; 25°C, Malvern PEAQ-ITC; PBS pH 7.4 with 2% DMSO
[3] = biological target: SCRM KiDoK peptide (Arabidopsis); assay: BLI; as a1 but analyte MPK6 preincubated with the small molecule kC9 (MPK6:kC9 1:1.5), 150-4.68 nM; biotinylated SCRM KiDoK peptide on streptavidin probes; 25°C; 1x PBS, 2% DMSO, 0.02 Tween 20, 0.1% BSA
[4] = biological target: SCRM KiDoK peptide (Arabidopsis); assay: BLI; biotinylated SCRM KiDoK peptide (500 nM) loaded on streptavidin probes; MPK6 as analyte at 150-4.68 nM; without kC9; Octet Red96, 25°C; 1x PBS, 2% DMSO, 0.02 Tween 20, 0.1% BSA; 1:1 model, Kd from kobs with steady-state analysis

Row | Kd [1] | Kd [2] | Kd [3] | Kd [4] | Substance
1 | 43.4 nM | 1400 nM |  |  | SCRM KiDoK peptide
2 |  |  | 856 nM | 40.1 nM | MPK6ΔNt (29 to 305) (from UniProt Q39026 29-305) (domain or fragment)
